T1: recombinant human CXCL11/I-TAC (human, UniProt O14625 22-94, biotinylated in the ELISA; 125I label in the radioligand assays)
T1 sequence (looked up): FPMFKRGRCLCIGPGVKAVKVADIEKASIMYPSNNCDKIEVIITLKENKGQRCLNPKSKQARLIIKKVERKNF

B1: Nanobody 8E5 (VHH)
VHH: EVQLVESGGGLVQAGGSLRLSCAASGGTFSSYRMAWFRQTPGKEREFVTLISRSGGTTDYTDSVKGRFTISRDNAKNTVYLQMNSLKPEDTAVYYCAAAGSMGWNHFREYDYWGQGTQVTVSS
notes: llama VHH against CCL2; not shown: C-terminal c-myc tag and (His)6 tag coded by the vector
B2: Nanobody 8D5 (VHH)
VHH: EVQLVESGGGLVQAGGSLRLSCAASGRTFSNYAMDWFRQAPGKEREFVAAISKSDGSTYYADSVKGRFTISRDNAKNTVYLQMNSLKPEDTAVYYCAAEGDSSPMGGVTYDYWGQGTQVTVSS
notes: as for B1
B3: Nanobody 15H3 (VHH)
VHH: EVQLVESGGGLVQAGGSLRLSCAASGGTFSNYAMGWFRQAPEKEREFVAAVIWRGGSTYYADSVKGRFTISRDNARNTVYLQMNSLKPEDTAVYYCAADLLGNSDYEPSSGFGSWGQGTQVTVSS
notes: as for B1
B4: Nanobody 8B2 (VHH)
VHH: EVQLVESGGGLVQAGGSLRLSCAASGGTFASYGMGWFRQYPGKEREFVAAISRSGDSTYYADSVKGRFTISRDNAKNTVYLQMNSLKPEDTAVYYCAAGRFIPQLSAYDYWGQGTQVTVSS
notes: as for B1
B5: Nanobody 8A5 (VHH)
VHH: QVQLVESGGGLVQAGGSLALSCAASGIAFSIFDMAWFRQTPGKEREAVARISHGGGKDYLDSVKGRFTISRDNAKNTVTLQMTSLKPEDTAVYYCNAKNSFRNLWGQGTQVTVSS
notes: as for B1
B6: Nanobody 15H4 (VHH)
VHH: EVQLVESGGGLVQAGGSLRLSCAASGLTFSTYPMGWFRQAPGKEREFVAAINSGGSSTYYADSVKGRFTISRDNAKNTVYLQMNSLKPEDTAVYSCAVKIYSGSYSSPPGYNYWGQGTQVTVSS
notes: as for B1
B7: Nanobody 8E1 (VHH)
VHH: EVQLVESGGGLVQAGGSLRLSCAASGLTFSTYPMGWFRQAPGKEREFVAAINSGGSYTYYADSVKGRFTISRDNAVNTIYLQMNSLKPEDTAVYSCAVKIYSGSYSSPPGYNHWGQGTQVTVSS
notes: as for B1
B8: Nanobody 8D1 (VHH)
VHH: EVQLVESGGGLVQPGGSLRLSCAASGFNLDDYAIGWFRQAPGKEREGVACASSTDGSTAYADSVKGRFTVSRDNAKNTVYLQMNSLKPEDTAVYYCAADPSDPFCPGLYYGMDYWGKGTLVTVSS
notes: as for B1
B9: Nanobody 8A7 (VHH)
VHH: EVQLVESGGGLVQAGGSLRLSCAASGRTFSSYRMGWFRQAPEKEREFVAVISRSGGSTFYSNSVKGRFTISRDNAKNTVYLQMNSLKPEDTAVYYCAAGAQMGWAEASTYDYWGQGTQVTVSS
notes: as for B1
B10: Nanobody 8E7 (VHH)
VHH: EVQLVESGGGLVQAGGSLRLSCAASGGTFSSYRMGWFRQAPEKEREFVAVITRSGGSHSYSNSVKGRFTISRDNAKNTVYLQMNSLKPEDTAVYYCAAGAQMGWAEASTYDYWGQGTQVTVSS
notes: as for B1
B11: Nanobody 8D7 (VHH)
VHH: EVQLVESGGGLVQAGGSLRLSCAASGRTFSSYRMGWFRQAPEKEREFVALITRSGGTTFYSNSVKGRFTISRDNAKNTVYLQMNSLEPEDTAVYYCAAGAQMGWAEASTYDYWGQGTQVTVSS
notes: as for B1
B12: Nanobody 15F7 (VHH)
VHH: EVQLVESGGGLVQAGGSLRLPCAASGRTFSSYRMGWFRQAPEKEREFVAVISRSGGDTFYSSSVKGRFTISRDNAKNTVYLQMNSLKPEDTAVYYCAAGAQMGWAEASTYDYWGQGTQVTVSS
notes: as for B1
B13: Nanobody 15H7 (VHH)
VHH: EVQLVKSGGGLVQAGGSLRLSCAASGRTFSSYRMGWFRQAPEKEREFVALISRSGGTTFYSNSVKGRFTISRDNAKNTVYLQMNSLEPEDTAVYYCAAGAQMGWAEASTYDYWGQGTQVTVSS
notes: as for B1
B14: Nanobody 11D5 (VHH)
VHH: EVQLVESGGGLVQPGGSLRLSCAASRSGLSINAMGWFRQAPGKQRELVASITRGGPTIYADSVKGRFTISGDNAKNTVYLQMNSLKPEDTAVYYCNALIDYGLGFPIEYWGQGTQVTVSS
notes: llama VHH against CXCL11; not shown: C-terminal c-myc tag and (His)6 tag coded by the vector
B15: Nanobody 11E5 (VHH)
VHH: EVQLVESGGGLVQAGGSLRLSCAASGFTFDDYAIGWFRQAPGKEREGVSWISSSDKDTYYADSVKGRFTISSDNAKNTVYLQMNSLKPEDTAVYYCAAGAGLLIATIWTTQMYDYWGQGTQVTVSS
notes: as for B14
B16: Nanobody 11F7 (VHH)
VHH: EVQLVESGGGLVQAGGSLRLSCAASGGTFTKQTMGWFRQTPGKDREFVAVQWWTGLSTYSAEYADSVKGRFTISRDNAKNTAYLQMNSLKFEDTAVYYCAAGLGVVRTFIRRASSYDDWGQGTQVTVSS
notes: as for B14
B17: Nanobody 11C7 (VHH)
VHH: EVQLVESGGGLVQAGGSLRLSCAAASGGTFTKQTISWFRQAPGKDREFVAAQWWSGLSTYFAEYADSVKGRFTISRDNAKNTAYLEMNSLKFEDTAVYYCAAGLGVVRTLIRRASSYDYWGQGTQVTVSS
notes: as for B14
B18: Nanobody 11B8 (VHH)
VHH: EVQLVESGGGLVQPGGSLRLSCAASGFTLDDYVIGWFRQAPGKEREGVSGISSSDGSTYYADSVKGRFTISRDNAKNTVYLQMNSLKPEDTAVYYCAAGMGVLRLWVLSKLSYDYWGQGTQVTVSS
notes: as for B14
B19: Nanobody 11G8 (VHH)
VHH: EVQLVESGGGLVQAGGSLRLSCAASGRTFSSYAMGWFRQAPGKEQEFVAAISWSGGSTYYADSVKGRFTISRDNAKNTVYLQMNSLKPEDTAVYYCAAHDVDDDESPYYSGGYYRALYDYWGQGTQVTVSS
notes: as for B14
B20: Nanobody 11D10 (VHH)
VHH: EVQLVESGGGLVQAGGSLRLSCAASGFTIDDYAIGWFRQAPGKEREGVSCISSSDGSTYYADSVKGRFTISSDNAKNTVYLQMNSLKPEDTAVYYCAAAQGLVVTEMFVGRSYDYWGQGTQVTVSS
notes: as for B14
B21: Nanobody 11A1 (VHH)
VHH: EVQLVESGGGLVQAGGSLRLSCAASGFTLDDYAIGWFRQAPGKEREGVSCISSIDGDTVYADSVKGRFTASSDNAKNTAYLQMNSLKPEDTAVYYCAAGQGLLTAQALRWESYDYWGQGTQVTVSS
notes: as for B14
B22: Nanobody 11D1 (VHH)
VHH: EVQLVESGGGLVQAGGSLRLSCAASGFTLNDYAIGWFRQAPGKEREGVSLISSDDGSTYYADSVKGRFTISSDNAKNTVYLQMNSLKPEDTAVYYCAAAQGLLLLSLWVPTQYDYWGQGTQVTVSS
notes: as for B14
B23: Nanobody 11C2 (VHH)
VHH: EVQLVESGGGLVQAGGSLRLPCAASGFTFDDYVIGWFRQAPGKEREGVSLISSSDGSTYYADSVKGRFTISSDNAKNTVYLQMNGLKPEDTAVYYCAATSSIPYYSGSYYPNPFEYDYWGQGTQVTVSS
notes: as for B14
B24: Nanobody 11G2 (VHH)
VHH: EVQLVESGGGLVQAGGSLRLSCAASGFTFDDYAIGWFRQAPGKEREGVSWISSSDGSTYYADSVKGRFTISSDNAKNTVYLQMNSLKPEDTAVYYCAAGAGFLITTIWTTQMYDYWGQGTQVTVSS
notes: as for B14
B25: Nanobody 11F2 (VHH)
VHH: EVQLVESGGGLVQPGGSLRLSCAASGFTFSSYAMSWVRQAPGKGLEWVSSIYSDGSNTYYADSVKGRFTISRDNAKNTLYLQMNSLKSEDTAVYYCAKKDYAVVPLDEYDYWGQGTQVTVSS
notes: llama VHH against CXCL11; also called 38D11; not shown: C-terminal c-myc tag and (His)6 tag coded by the vector
B26: Nanobody 11D2 (VHH)
VHH: EVQLVESGGGLVQAGGSLRLSCAASGFSFDDYAIGWFRQAPGKEREGVSLISSSDGSTYYADSVKGRFTISSDNAKNTVYLQMNSLKPEDTAVYYCAAGQGLLRAQALRWESYDYWGQGTQVTVSS
notes: llama VHH against CXCL11; also called 11G1; 11H1; not shown: C-terminal c-myc tag and (His)6 tag coded by the vector
B27: Nanobody 11H2 (VHH)
VHH: EVQLVESGGGLVQAGGSLRLSCAASGFTFDDYAIGWFRQAPGKEREGVSCISSSDGDTYYADSVKGRFTASSDNAKNTVYLQINSLKPEDTAVYYCAAGQGLLIAQALRWESYDYWGQGTQVTVSS
notes: llama VHH against CXCL11; purified; not shown: C-terminal c-myc tag and (His)6 tag coded by the vector
B28: Nanobody 11A3 (VHH)
VHH: EVQLVESGGGLVQAGGSLRLSCAASGFSFDDYVIGWFRQAPGKEREGVSLISSSDGSTYYADSVKGRFTISSDNAKNTVYLQMNSLKPEDTAVYYCAAGNGLLRLWMFHVSAYDYWGQGTQVTVSS
notes: as for B14
B29: Nanobody 11E2 (VHH)
VHH: EVQLVESGGGLVQAGGSLRLSCAASGFTFDDYAIGWFRQAPGKEREGVSCISSSDDSTYYADSVKGRFTISSDTAKNTVYLQMDSLKPEDTAVYYCAKDCIIPPIGSWGQGTQVTVSS
notes: as for B14

T2 sequence (P13500 24-99 limits assumed): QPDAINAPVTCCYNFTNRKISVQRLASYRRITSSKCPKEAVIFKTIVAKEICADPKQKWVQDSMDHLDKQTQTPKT

The first experiment addresses T2, recombinant human CCL2/MCP1 (human, UniProt P13500 24-99, 125I label in the radioligand assays).
T2 construct: Immunogen and selection antigen was the Mucin stalk Chimera (R&D 979-MC/CF)
Briefly: ELISA, periplasmic extract on coated CCL2, anti-myc detection. A general note: ELISA stands for enzyme-linked immunosorbent assay.
B1: the binding result is given as “binds”. Consider B2, for which the binding result is “binds”. For B3, the binding result is “binds”. The same measure, in the same setting: to B4 belongs “binds”; to B5, “binds”; to B6, “binds”. As to B7, the binding result is “binds”. Regarding B8, the binding result is on record as “binds”.

In the case of B9, the binding result is “binds”. Turning to B10, the binding result is listed as “binds”. As for B11, the binding result is “binds”. With B12, the binding result is “binds”. For the molecule B13, the binding result was “binds”.

A further experiment addresses T1, recombinant human CXCL11/I-TAC. Briefly: inhibition of 125I-CXCL11 binding to hCXCR3 (HEK293T cells), 10x diluted periplasm.
Regarding B14, the binding result is “binds”. For B15, the binding result is recorded as “binds”. In the case of B16, the binding result is given as “binds”. As for B17, the binding result is reported as “binds”.

As for B18, the binding result is listed as “binds”.

For the molecule B19, the binding result is reported as “binds”. Same read-out and setting: the entry for B20 is “binds”. B21: the binding result is given as “binds”. Regarding B22, the binding result is on record as “binds”.

Another experiment shares this target. Briefly: inhibition of 125I-CXCL11 binding to hCXCR3 (HEK293T cells), 10x diluted periplasm; ELISA grade at the label.
As for B23, the binding result is on record as “binds”. B24: the binding result is “binds”. On to B25, for which the binding result is “binds”. For the molecule B26, the binding result is reported as “binds”.

Take B27: the binding result is “binds”. Consider B28, for which the binding result is “binds”. For B29, the binding result is “binds”.

Source of the values: patent publication US20100092460A1 (Ablynx, published 2010).
